In article PMC3563628, “Prevalence, Specificity and Determinants of Lipid-Interacting PDZ Domains from an In-Cell Screen and In Vitro Binding Experiments” (PLoS ONE, 2013):

How the values were obtained:
[1] = SPR binding to PE liposomes; details: 40% PE in DOPC, 100% DOPC as reference
Excerpt: (§1) As an alternative in vitro approach we performed lipid blot assays using commercially available membranes pre-spotted with PtdIns, PtdIns4P, PtdIns(4,5)P2 and PtdIns(3,4,5)P3 as well as other abundant lipids (Fig. 4B–C). IL16_3 and PDZD2_3, were excluded from this analysis due to their high binding to the blank immobilized spot. […] Other PtdInsPs-PDZ interactions were confirmed. Discrepancy between SPR and lipid blot approaches can be easily explained by the fact that the latter method is highly koff-dependent. […] We therefore performed SPR experiments with five selected PDZ domains (CASK, DFNB31_1, MAGI1_6, MAGI3_3 and SLC9A3R2_1) and two selected lipids, PS and PE, embedded in DOPC liposomes (10% PS or 40% PE in a DOPC using 100% DOPC as reference). […] We have previously reported that weak electrostatic interactions with PS reinforce the interactions of the second PDZ domain of Polychaetoid with PtdIns(4,5)P2 containing liposomes. We therefore investigated, for the same five PDZ domains, how the apparent PtdIns(4,5)P2 affinities were affected by presenting the lipid in the background of liposomes mimicking biological membrane lipid composition ([…], 20% PS, 40% PE and 5% PtdIns(4,5)P2).
(§2) SPR experiments were performed in a BiacoreT100 (GE Healthcare) at 25°C in 25 mM HEPES, 150 mM NaCl, pH 7.2 and 1 mM beta-mercaptoethanol with a flow rate of 30 µl/min. […]

[2] = SPR binding to PS liposomes; details: 10% PS in DOPC, 100% DOPC as reference
Excerpt: as §1, §2

[3] = SPR binding to PtdIns(4,5)P2 in composite liposomes mimicking biological membrane; details: 30% PC, 20% PS, 40% PE and 5% PtdIns(4,5)P2
Excerpt: as §1, §2

[4] = SPR equilibrium binding of his-tagged PDZ domains to PtdIns(4,5)P2 liposomes; details: SPR equilibrium analysis, 5% PtdIns(4,5)P2 in DOPC liposomes, 25°C, pH 7.2; read-out: KD app PtdIns(4,5)P2
[5] = SPR equilibrium binding of his-tagged PDZ domains to various PtdInsPs species; details: recombinant PDZ domain over PtdInsPs liposomes
[6] = target: C-terminal peptide of usher (FTDTHL); assay: Equilibrium peptide binding titration followed by intrinsic tryptophan fluorescence; details: Y167W mutation introduced as fluorescent probe; protein 3 µM; 25°C, pH 7.2
Excerpt: Given the overall low PtdInsPs specificities, and often modest PtdInsPs affinities, it is unlikely that PtdInsPs bindings alone target the PDZ domains to their defined subcellular compartments. Plausibly, peptide interactions are also involved in controlling the subcellular targeting. To address the interplay between PtdInsPs and peptide-binding we chose DFNB31_1 and CASK as models, taking two of the PDZ domains with well-defined cognate peptides. Cognate peptide ligands were the C-terminal peptides of usher (FTDTHL) for DFNB31_1 [50] and the TKEFYA peptide of syndecan-2 for CASK [51]. We measured the PDZ-peptide affinities by a fluorescence-based approach (Fig. 4E), by engineering Trp into the PDZ scaffolds and following the interactions by changes in intrinsic fluorescence, a strategy previously established for other PDZ domains (KD-values: DFNB31_1/Y167W for FTDTHL 46±6 µM; CASK/I157W for TKEFYA 280±20 µM), [52]. We then determined the apparent PtdIns(4,5)P2 affinities in presence of a (close to) saturating concentration of respective peptide (1 mM). The FTDTHL peptide appeared to compete for DFNB31_1-PtdIns(4,5)P2 interactions (KD ^PtdIns(4,5)P2 in presence of peptide >30 µM, Fig. 4F), which might indicate overlapping binding sites. […] We have previously reported on competitive binding by peptide and PtdIns(4,5)P2 with CASK [13]. However, in these experiments the peptide was linked to sepharose beads and PtdIns(4,5)P2 was present on micelles, which made it more difficult for the PDZ domain to simultaneously interact with the two ligands.
Spectrofluorimetric measurements were performed at 25°C in 25 mM HEPES, 150 mM NaCl, pH 7.2 and 1 mM beta-mercaptoethanol in a Carry Eclipse Spectrofluorimeter (Varian). The peptides corresponded to the C-termini of syndecan-2 (TKEFYA) and usher (FTDTHL) and were of high purity (purity >95%, GeneCust), and the experiment were performed and analyzed as described previously. Urea induced equilibrium unfolding experiments were performed using 1 µM of proteins (excitation 280 nm emission 320–380 nm) and the data fitted by a standard two-state model.

- PS binding, in words [2]: low affinity interactions
- Kd [3]: 2.7 ± 1 µM
- Kd [4]: 7.8 ± 2 µM
- PtdInsPs binding in vitro, in words [5]: high-affinities
- Kd [6]: 46 ± 6 µM
B1: DFNB31_1: recombinant his-tagged first PDZ domain of human DFNB31 (protein)
chain: GEVRLVSLRRAKAHEGLGFSIRGGSEHGVGIYVSLVEPGSLAEKEGLRVGDQILRVNDKSLARVTHAEAVKALKGSKKLVLSVYSAGRI
modifications: left off: His6, N-terminal, state not stated
notes: recombinant his-tagged first PDZ domain of human DFNB31
- PE binding, in words [1]: did not observe any detectable PDZ-PE binding
